Assay results reported in patent US20210139569A1 (STRESSMARQ BIOSCIENCES, published 2021).

How the values were obtained:
[1] = biological target: T1, α-synuclein peptide AA 1-30, BSA conjugate (human, N-terminus conjugated to a C-6 spacer (Ahx), which is conjugated to an N-terminal cysteine; conjugated to BSA); test: ELISA on BSA-conjugated peptide (FIG. 10)
T1 construct: also called 1-30aa
Protocol: (§1) ELISA conditions for epitope mapping: Nunc® MaxiSorp™ 98 well plates ELISA plates were coated with peptide conjugated to BSA at 0.1 μg/well in 100 μl/well CCB (pH 9.6) overnight at 4° C. The plates were then blocked with 3% skim milk powder in PBS for 3 hours at room temperature. 100 μL/well antibody (1 μg/mL) was added and incubated for 1 hour at 37° C. Secondary Antibody 1:10,000 Goat anti-mouse IgG/IgM (H+L)-HRP at 100 uL/well in PBS-Tween for 1 hour at room temperature. All washing steps performed for 30 mins with PBS-Tween. […] Development time: 15 minutes. Plates were read at 450 nm.

[2] = biological target: T2, α-synuclein peptide AA 21-50, BSA conjugate (human, N-terminus conjugated to a C-6 spacer (Ahx), which is conjugated to an N-terminal cysteine; conjugated to BSA); test: ELISA on BSA-conjugated peptide (FIG. 10)
T2 construct: also called 21-50aa
Protocol: as §1

[3] = biological target: T3, α-synuclein peptide AA 41-70, BSA conjugate (human, N-terminus conjugated to a C-6 spacer (Ahx), which is conjugated to an N-terminal cysteine; conjugated to BSA); test: ELISA on BSA-conjugated peptide (FIG. 10)
T3 construct: also called 41-70aa
Protocol: as §1

[4] = biological target: α-synuclein peptide AA 81-110, BSA conjugate (human, N-terminus conjugated to a C-6 spacer (Ahx), which is conjugated to an N-terminal cysteine; conjugated to BSA); test: ELISA on BSA-conjugated peptide (FIG. 10)
Protocol: as §1

[5] = biological target: α-synuclein peptide AA 121-140, BSA conjugate (human, N-terminus conjugated to a C-6 spacer (Ahx), which is conjugated to an N-terminal cysteine; conjugated to BSA); test: ELISA on BSA-conjugated peptide (FIG. 10)
Protocol: as §1

[6] = biological target: α-synuclein peptide AA 101-130, BSA conjugate (human, N-terminus conjugated to a C-6 spacer (Ahx), which is conjugated to an N-terminal cysteine; conjugated to BSA); test: binding to overlapping peptides (FIG. 10)
α-synuclein peptide AA 101-130, BSA conjugate (human, N-terminus conjugated to a C-6 spacer (Ahx), which is conjugated to an N-terminal cysteine; conjugated to BSA), sequence (peptide, as listed by the source): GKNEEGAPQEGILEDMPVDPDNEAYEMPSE
Protocol: as §1

α-synuclein peptide AA 81-110, BSA conjugate (human, N-terminus conjugated to a C-6 spacer (Ahx), which is conjugated to an N-terminal cysteine; conjugated to BSA), sequence (peptide, as listed by the source): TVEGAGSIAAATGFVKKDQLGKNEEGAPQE

B1: monoclonal antibody 2F11 (hybridoma ATCC #PTA-124174) (antibody, V domains shown)
VH: EVQLQQSGAELVRSGASVKLSCTASGFNIKDYYMFWVKQRPEQGLEWIGWNDPENGDTEYAPKFQGKATMTADTSSNTAYLQLSSLTSEDTAVYYCNAWDGNYVMDYWGQGTSVTVSS
VL: QIVLTQSPAIMSASLGERVTMTCTASSSVSSSYLHWYQQKPGSSPKLWIYSTSNLASGVPPRFSGSGSGTSYSLTISSMEAEDAATYYCHQYHRSPPMYTFGGGTKLE
notes: Mouse monoclonal, IgG1 kappa; Used as hybridoma supernatant or Protein G purified; with gold-labelled detection for electron microscopy; also called clone 2F11; 2F11 antibody
Question: What does the source list for B1?
Answer: binding result [1]: no binding (tested: 1 µg/mL antibody); binding result [2]: no binding (tested: 1 µg/mL antibody); binding result [3]: no binding (tested: 1 µg/mL antibody); binding result [4]: no binding (tested: 1 µg/mL antibody); binding result [5]: no binding (tested: 1 µg/mL antibody); binding result [6]: binds
